B1: Myocilin, Q99972 (parent)
chain: MRFFCARCCSFGPEMPAVQLLLLACLVWDVGARTAQLRKANDQSGRCQYTFSVASPNESSCPEQSQAMSVIHNLQRDSSTQRLDLEATKARLSSLESLLHQLTLDQAARPQETQEGLQRELGTLRRERDQLETQTRELETAYSNLLRDKSVLEEEKKRLRQENENLARRLESSSQEVARLRRGQCPQTRDTARAVPPGSREVSTWNLDTLAFQELKSELTEVPASRILKESPSGYLRSGEGDTGCGELVWVGEPLTLRTAETITGKYGVWMRDPKPTYPYTQETTWRIDTVGTDVRQVFEYDLISQFMQGYPSKVHILPRPLESTGAVVYSGSLYFQGAESRTVIRYELNTETVKAEKEIPGAGYHGQFPYSWGGYTDIDLAVDEAGLWVIYSTDEAKGAIVLSKLNPENLELEQTWETNIRKQSVANAFIICGTLYTVSSYTSADATVNFAYDTGTGISKTLTIPFKNRYKYSSMIDYNPLEKKLFAWDNLNMVTYDIKLSKM

Variants of: B1
Details: Homo sapiens, pH 6, Thermal, CD, Sodium acetate 10mM, reversible: no, structure 4WXQ, whole UniProt chain shown

Variant	Tm (CaCl2 1mM) [°C]	change of melting temperature, mutant - wild type (higher = more stable) (CaCl2 1mM) [°C]	Tm (CaCl2 10mM) [°C]	change of melting temperature, mutant - wild type (higher = more stable) (CaCl2 10mM) [°C]
MRFFCARCCSFGPEMPAVQLLLLACLVWDVGARTAQLRKANDQSGRCQYTFSVASPNESSCPEQSQAMSVIHNLQRDSSTQRLDLEATKARLSSLESLLHQLTLDQAARPQETQEGLQRELGTLRRERDQLETQTRELETAYSNLLRDKSVLEEEKKRLRQENENLARRLESSSQEVARLRRGQCPQTRDTARAVPPGSREVSTWNLDTLAFQELKSELTEVPASRILKESPSGYLRSGEGDTGCGELVWVGEPLTLRTAETITGKYGVWMRDPKPTYPYTQETTWRIDTVGTDVRQVFEYDLISQFMQGYPSKVHILPRPLESTGAVVYSGSLYFQGAESRTVIRYELNTETVKAEKEIPGAGYHGQFPYSWGGYTDIDLAVDEAGLWVIYSTDEAKGAIVLSKLNPENLELEQTWETNIRKQSVANAFIICGTLYTVSSYTSADATVNFAYDTGTGISKTLTIPFKNRYKYSSMSDYNPLEKKLFAWDNLNMVTYDIKLSKM [I477S]	39.7	-13.3	48.2	-11.4
MRFFCARCCSFGPEMPAVQLLLLACLVWDVGARTAQLRKANDQSGRCQYTFSVASPNESSCPEQSQAMSVIHNLQRDSSTQRLDLEATKARLSSLESLLHQLTLDQAARPQETQEGLQRELGTLRRERDQLETQTRELETAYSNLLRDKSVLEEEKKRLRQENENLARRLESSSQEVARLRRGQCPQTRDTARAVPPGSREVSTWNLDTLAFQELKSELTEVPASRILKESPSGYLRSGEGDTGCGELVWVGEPLTLRTAETITGKYGVWMRDPKPTYPYTQETTWRIDTVGTDVRQVFEYDLISQFMQGYPSKVHILPRPLESTGAVVYSGSLYFQGAESRTVIRYELNTETVKAEKEIPGAGYHGQFPYSWGGYTDIDLAVDEAGLWVIYSTDEAKGAIVLSKLNPENLELEQTWETNIRKQSVANAFIICGTLYTVSSYTSADATVNFAYDTGTGISKTLTIPFKNRYKYSSMNDYNPLEKKLFAWDNLNMVTYDIKLSKM [I477N]	37.7	-15.3		
MRFFCARCCSFGPEMPAVQLLLLACLVWDVGARTAQLRKANDQSGRCQYTFSVASPNESSCPEQSQAMSVIHNLQRDSSTQRLDLEATKARLSSLESLLHQLTLDQAARPQETQEGLQRELGTLRRERDQLETQTRELETAYSNLLRDKSVLEEEKKRLRQENENLARRLESSSQEVARLRRGQCPQTRDTARAVPPGSREVSTWNLDTLAFQELKSELTEVPASRILKESPSGYLRSGEGDTGCGELVWVGEPLTLRTAETITGKYGVWMRDPKPTYPYTQETTWRIDTVGTDVRQVFEYDLISQFMQGYPSKVHILPRPLESTGAVVYSGSLYFQGAESRTVIRYELNTETVKAEKEIPGAGYHGQFPYSWGGYTDIDLAVDEAGLWVIYSTDEAKGAIVLSKLNPENLELEQTWETNIRKQSVANAFIICGTLYTVSSYTSADATVNFAYDTGTGISKTLTIPFKNRYKYSSMIDYNPLEKKLFAWDNLNMVTYDIKLPKM [S502P]	41	-12	49.9	-9.7
MRFFCARCCSFGPEMPAVQLLLLACLVWDVGARTAQLRKANDQSGRCQYTFSVASPNESSCPEQSQAMSVIHNLQRDSSTQRLDLEATKARLSSLESLLHQLTLDQAARPQETQEGLQRELGTLRRERDQLETQTRELETAYSNLLRDKSVLEEEKKRLRQENENLARRLESSSQEVARLRRGQCPQTRDTARAVPPGSREVSTWNLDTLAFQELKSELTEVPASRILKESPSGYLRSGEGDTGCGELVWVGEPLTLRTAETITGKYGVWMRDPKPTYPYTQETTWRIDTVGTDVRQVFEYDLISQFMQGYPSKVHILPRPLESTGAVVYSGSLYFQGAESRTVIRYELNTETVKAEKEIPGAGYHGQFPYSWGGYTDIDLAVDEAGLWVIYSTDEAKGAIVLSKLNPENLELEQTWETNIRKQSVANAFIICGTLYTVSSYTSADATVNFAYDTGTGISKTLTIPFKNRYKYSSMIDYNPLEKKLFAWDNLNMVTYDFKLSKM [I499F]	42.8	-10.2	50.4	-9.2
MRFFCARCCSFGPEMPAVQLLLLACLVWDVGARTAQLRKANDQSGRCQYTFSVASPNESSCPEQSQAMSVIHNLQRDSSTQRLDLEATKARLSSLESLLHQLTLDQAARPQETQEGLQRELGTLRRERDQLETQTRELETAYSNLLRDKSVLEEEKKRLRQENENLARRLESSSQEVARLRRGQCPQTRDTARAVPPGSREVSTWNLDTLAFQELKSELTEVPASRILKESPSGYLRSGEGDTGCGELVWVGEPLTLRTAETITGKYGVWMRDPKPTYPYTQETTWRIDTVGTDVRQVFEYDLISQFMQGYPSKVHILPRPLESTGAVVYSGSLYFQGAESRTVIRYELNTETVKAEKEIPGAGYHGQFPYSWGGYTDIDLAVDEAGLWVIYSTDEAKGAIVLSKLNPENLELEQTWETNIRKQSVANAFIICGTLYTVSSYTSADATVNFAYDTGTGISKTLTIPFKNRYKYSSMIDYNLLEKKLFAWDNLNMVTYDIKLSKM [P481L]	45.5	-7.5	51.2	-8.4
MRFFCARCCSFGPEMPAVQLLLLACLVWDVGARTAQLRKANDQSGRCQYTFSVASPNESSCPEQSQAMSVIHNLQRDSSTQRLDLEATKARLSSLESLLHQLTLDQAARPQETQEGLQRELGTLRRERDQLETQTRELETAYSNLLRDKSVLEEEKKRLRQENENLARRLESSSQEVARLRRGQCPQTRDTARAVPPGSREVSTWNLDTLAFQELKSELTEVPASRILKESPSGYLRSGEGDTGCGELVWVGEPLTLRTAETITGKYGVWMRDPKPTYPYTQETTWRIDTVGTDVRQVFEYDLISQFMQGYPSKVHILPRPLESTGAVVYSGSLYFQGAESRTVIRYELNTETVKAEKEIPGAGYHGQFPYSWGGYTDIDLAVDEAGLWVIYSTDEAKGAIVLSKLNPENLELEQTWETNIRKQSVANAFIICGTLYTVSSYTSADATVNFAYDTGTGISKTLTIPFKNRYKYSSMIDYKPLEKKLFAWDNLNMVTYDIKLSKM [N480K]	42.4	-10.6	48.1	-11.5
